Measured values reported in the supplement of paper PMC9732359.
± gives the uncertainty stated by the source.

Assay: protein stability index of a GFP-peptide fusion (yeast GPS) (PSI 1-4); higher = more stable; sorted into four equal gates, so the index is relative within each strain
How it was run: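 Each library plasmid carries Cherry plus GFP with a tiled 17-residue yeast protein peptide fused downstream, and the pooled library was carried in yeast. Mid-log cultures in leucine-free medium were sorted into four equal gates by GFP/Cherry ratio. Reads from Illumina sequencing of PCR-amplified plasmids from each gate were assigned to strains by barcodes. Per peptide, the protein stability index was computed as the summed products of gate read frequency and gate number.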

| Sequence | protein stability index (doa10∆) | protein stability index (pdr5∆) | protein stability index (san1∆) | protein stability index (ubr1∆) |
| --- | --- | --- | --- | --- |
| IQLNGGSISEKVDWARE [RPL3] | 2.66 ± 0.29 | 2.96 ± 0.12 | 2.88 ± 0.12 | – |
| EWFEQNNSEQDQEIVIQ [ISW2] | 3.04 ± 0.13 | 3.19 ± 0.14 | 2.45 ± 0.18 | 3.25 ± 0.093 |
| ELADLPKLKRIGLVKCT [GRR1] | 2.82 ± 0.085 | 2.71 ± 0.051 | 2.28 ± 0.088 | 2.88 ± 0.087 |
| MSGGKGGKAGSAAKASQ [HTA1] | 3.18 ± 0.1 | 3.13 ± 0.1 | 2.83 ± 0.1 | 3.24 ± 0.07 |
| VADAKQLGEWAGLGKID [RPS12] | 3.67 ± 0.28 | – | 3.46 ± 0.24 | 3.35 ± 0.13 |
| LLEKANNQQRLLLKKLD [SMC3] | 2.31 ± 0.074 | 2.56 ± 0.074 | 2.28 ± 0.06 | 2.39 ± 0.044 |
| FTRPLFVLLEIEPVTKV [YCS4] | 1.94 ± 0.062 | 2.05 ± 0.07 | 1.95 ± 0.081 | 1.97 ± 0.069 |
| QRETSGMIVISMENYHL [SRB8] | 2.16 ± 0.04 | 1.99 ± 0.04 | 2.09 ± 0.042 | 2.35 ± 0.033 |
| EFISIYSNSHQMAVHIA [RET1] | 3.25 ± 0.11 | 3.45 ± 0.19 | 3.04 ± 0.11 | 3.11 ± 0.087 |
| KLILHAIHIFESYYNWK [YML103C/NUP188] | 1.57 ± 0.082 | 1.45 ± 0.07 | 1.58 ± 0.081 | 1.82 ± 0.056 |
| AVTEATSTNGDSENNEE [RGR1] | 3.13 ± 0.14 | 3.3 ± 0.076 | 3.36 ± 0.068 | 3.08 ± 0.073 |
| VHDIFSKIFNESFPDDI [CDC53] | 2.86 ± 0.069 | 2.91 ± 0.065 | 2.87 ± 0.059 | 2.82 ± 0.06 |
| YKWTQGINNLSEIWDVS [PRP8] | 3.03 ± 0.1 | 2.9 ± 0.077 | 3.12 ± 0.099 | 2.44 ± 0.066 |
| IQSAESIKSQKEEISDQ [SWI3] | 2.4 ± 0.26 | 3.08 ± 0.14 | 2.58 ± 0.098 | 2.85 ± 0.11 |
| ISIFSTPGSVSLSAYNL [PRP8] | 2.61 ± 0.24 | 2.46 ± 0.09 | – | 1.81 ± 0.22 |
| VSVEGVNVEKFNVEYFA [RPL6A] | 2.91 ± 0.069 | 3.21 ± 0.067 | 3.14 ± 0.042 | 3.16 ± 0.054 |
| QDVIKVLYQSNATHDED [SWP82] | 2.91 ± 0.043 | 2.89 ± 0.04 | 2.69 ± 0.04 | 2.881 ± 0.028 |
| EGRLYQVEYALESISHA [PRE9] | 2.09 ± 0.056 | 2.19 ± 0.068 | 1.98 ± 0.086 | 1.85 ± 0.048 |
| SEAEQIDTSKNLENMSI [YCG1] | 3.3 ± 0.073 | 3.28 ± 0.068 | 3.17 ± 0.068 | 2.99 ± 0.069 |
| ERDSYKLLASTEENKAN [YIL149C/MLP2] | 2.76 ± 0.054 | 2.77 ± 0.047 | 2.84 ± 0.046 | 3.06 ± 0.034 |
| QNNKPSFVFGQAAAKPS [YLR335W/NUP2] | 1.77 ± 0.05 | 2.12 ± 0.066 | 2.2 ± 0.1 | 2.45 ± 0.075 |
| QIELSCNERVPLSVATE [SRP72] | 2.11 ± 0.04 | 2.21 ± 0.053 | 2.1 ± 0.087 | 2.12 ± 0.04 |
| VDPASAPNHSPEIDNLD [RRP6] | 3.1 ± 0.11 | 2.98 ± 0.074 | 3.25 ± 0.072 | 3.16 ± 0.059 |
| KSGKRKPNIILDEDDTN [RPC31] | 3.29 ± 0.1 | 3.12 ± 0.092 | 3.35 ± 0.067 | 3.21 ± 0.046 |
| NLTDEGYQWGEENKDIM [PRP8] | 2.81 ± 0.21 | – | – | 3.2 ± 0.23 |

| Sequence | protein stability index (doa10∆) | protein stability index (pdr5∆) | protein stability index (san1∆) | protein stability index (ubr1∆) |
| --- | --- | --- | --- | --- |
| EFEYDDEPDEQGNPKKR [CYT1] | 3.21 ± 0.076 | 3.28 ± 0.073 | 3.04 ± 0.07 | 3.15 ± 0.07 |
| IEALYDDDTFSDREMAA [RPN2] | 2.19 ± 0.066 | 1.89 ± 0.051 | 1.57 ± 0.1 | 2.13 ± 0.054 |
| FYVPQARNVTFDSLRNF [GRR1] | 2.04 ± 0.08 | 2.27 ± 0.075 | 2.52 ± 0.08 | 2.22 ± 0.059 |
| TKSNRRVSHSDTNSSKP [SIR4] | 2.97 ± 0.077 | 3.19 ± 0.085 | 2.99 ± 0.077 | 3.25 ± 0.053 |
| ISLYLLNLLSQNNTTKF [RPN12] | 1.53 ± 0.044 | 1.72 ± 0.054 | 1.32 ± 0.073 | 1.36 ± 0.039 |
| VHPVNEREPVPLGILHI [RRP45] | – | 2.63 ± 0.16 | – | 2.15 ± 0.19 |
| IKIVSDKKVLVKVQPEG [RPT6] | 2.75 ± 0.1 | 2.83 ± 0.09 | 2.85 ± 0.12 | 2.74 ± 0.07 |
| EKIAAGYMQKPVYATIG [PRP28] | 2.87 ± 0.19 | 2.67 ± 0.076 | 2.67 ± 0.15 | 2.67 ± 0.094 |
| MQSTSPAVKQWDLLPEP [SWI1] | 2.73 ± 0.19 | 1.5 ± 0.11 | 1.36 ± 0.27 | 1.07 ± 0.14 |
| GAIDEALEEAKLSDNIS [YDL116W/NUP84] | 3.17 ± 0.11 | 3.25 ± 0.091 | 3.41 ± 0.07 | 3.3 ± 0.045 |
| DYITEAVFKIVLQPLLP [SNU114] | 1.44 ± 0.043 | 1.31 ± 0.066 | 1.38 ± 0.089 | 1.51 ± 0.055 |
| KLKGLMKLNILDERFAS [IRR1] | 2.29 ± 0.13 | 2.75 ± 0.083 | 2.4 ± 0.16 | 2.35 ± 0.064 |
| LGPGIYCDPNTQEIRPV [RRP40] | 2.62 ± 0.057 | 2.78 ± 0.051 | 2.53 ± 0.057 | 2.59 ± 0.058 |
| ELSDSDRQIINEKMQLL [SIR4] | 2.76 ± 0.049 | 2.8 ± 0.055 | 2.56 ± 0.06 | 2.32 ± 0.047 |
| HVKNFGFANSLTFILGQ [YML031W/NDC1] | 1.56 ± 0.12 | 1.74 ± 0.076 | 1.42 ± 0.13 | 2.27 ± 0.059 |
| QGSVTVGLRSNTHAVLV [PRE5] | 1.24 ± 0.033 | 1.43 ± 0.039 | 1.75 ± 0.07 | 1.29 ± 0.037 |
| KKRIRLPSEERIQKIIS [YIL149C/MLP2] | 2.66 ± 0.074 | 2.49 ± 0.062 | 2.71 ± 0.081 | 2.72 ± 0.04 |
| GLSMLAKLKELAEDVDD [RPC31] | 2.92 ± 0.079 | 3.31 ± 0.061 | 2.87 ± 0.078 | 2.95 ± 0.047 |
| RKTWKRQNTLSLWRYRK [RPL15A] | 3.45 ± 0.083 | 3.1 ± 0.074 | 3.3 ± 0.052 | 3.36 ± 0.046 |
| EYIIAAIRKAPHNSKSL [RPN3] | 2.79 ± 0.067 | 2.76 ± 0.061 | 2.64 ± 0.045 | 2.68 ± 0.06 |
| GFKWLNKLDEYHGLYTN [LIN1] | 1.81 ± 0.056 | 1.79 ± 0.056 | 1.88 ± 0.056 | 1.67 ± 0.068 |
| QEQITLYDHWDKYHEQW [SSN8] | 3.32 ± 0.19 | 3.12 ± 0.12 | 2.84 ± 0.071 | 2.76 ± 0.046 |
| VSPNAAPRQEISEEETT [YAR002W/NUP60] | 3.19 ± 0.1 | 2.88 ± 0.077 | 2.9 ± 0.086 | 2.6 ± 0.12 |
| KRPNNKTLEKLESTIAE [IRR1] | 3.62 ± 0.14 | 3.35 ± 0.1 | 3.01 ± 0.096 | 3.31 ± 0.14 |
| MDRTQTFIKDCLFTKCL [POP4] | 1.75 ± 0.05 | 1.75 ± 0.056 | 1.7 ± 0.1 | 1.94 ± 0.044 |
